Paper PMC2814181

Legend:
dTomato [1] = assay: SEC-MALS
dTomato [2] = assay: SDS-PAGE of unboiled samples
dTomato [3] = assay: native gel or EMSA
[4] = molecular target: Neptune (mKate M41G S61C S158C Y194F); assay: SEC-MALS
[5] = molecular target: Neptune (mKate M41G S61C S158C Y194F); assay: AUC
[6] = molecular target: Neptune (mKate M41G S61C S158C Y194F); assay: native gel or EMSA
mKate [7] = assay: SEC-MALS
mKate [8] = assay: native gel or EMSA
[9] = molecular target: Neptune, His tag removed by TEV protease (crystallized form); assay: crystal structure

## dTomato
dTomato [1]
  stoichiometry N: 2
dTomato [2]
  stoichiometry N: 2
dTomato [3]
  stoichiometry N: 2

## Neptune (mKate M41G S61C S158C Y194F)
[4]
  stoichiometry N: 2
[5]
  Kd: 500 nM
[6]
  stoichiometry N: 2

## mKate
mKate [7]
  stoichiometry N: 2
mKate [8]
  stoichiometry N: 2

## Neptune, His tag removed by TEV protease (crystallized form)
[9]
  stoichiometry N: 4
